Test results as given in patent US20180339057A1 (Novo Nordisk, published 2018).

T1: human MIC-1 receptor (hGFRAL, GDNF family receptor alpha like), full length (human, UniProt Q6UXV0 19-394)
T1 sequence (looked up): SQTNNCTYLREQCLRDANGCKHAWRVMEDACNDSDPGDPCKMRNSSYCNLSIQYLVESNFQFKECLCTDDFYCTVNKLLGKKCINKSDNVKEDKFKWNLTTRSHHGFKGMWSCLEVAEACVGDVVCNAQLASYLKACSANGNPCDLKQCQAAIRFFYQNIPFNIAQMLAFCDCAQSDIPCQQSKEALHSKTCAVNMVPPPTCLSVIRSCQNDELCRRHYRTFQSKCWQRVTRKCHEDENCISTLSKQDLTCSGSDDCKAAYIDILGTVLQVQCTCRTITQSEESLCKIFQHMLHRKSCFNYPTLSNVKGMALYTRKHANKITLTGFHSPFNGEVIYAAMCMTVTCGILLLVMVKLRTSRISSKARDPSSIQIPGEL


Assays:
[1] = target: T1, human MIC-1 receptor (hGFRAL, GDNF …); assay: cell-based or functional assay
[2] = target: T1, human MIC-1 receptor (hGFRAL, GDNF …); assay: SPA: displacement of 50 pM human [125I]-MIC-1 from BHK21-hGFRAL-IRES-hRET cell membranes
Protocol: Binding potencies of MIC-1 compounds were calculated by IC50 of displacement curves.
BHK21-hGFRAL-IRES-hRET cells were cultured at +37° C. in a humidified atmosphere with 5% CO₂ in complete medium consisting of DMEM with high glucose and sodium pyrovate, heat inactivated 10% Fetal Bovine Serum, 1% Penicillin-Streptomycin, 1 mg/ml G418-Geneticin and 400 ug/ml Hygromycin. Cells were washed twice in ice cold Dulbecco's phosphate-buffered saline (DPBS) and detached mechanically by scraping, transferred in ice cold DPBS into conical centrifuge tubes and centrifuged for 5 min at 1500 rpm at +20° C. Cell pellet was resuspended in a total amount of 10 ml ice cold homogenization buffer A (50 mM Tris, 2.5 mM EDTA, adjust pH7.4 with one EDTA-free protease inhibitor cocktail tablet/50 ml) and homogenized for 20 seconds. The homogenate was centrifuged at 16000 rpm in 20 minutes at +4° C. The supernatant was discarded and the pellet was reconstituted in 10 ml homogenization buffer B (50 mM Tris, 320 mM Sucrose, adjust pH 7.4 with one EDTA-free protease inhibitor cocktail tablet/50 ml) and homogenized for 20 seconds and centrifuged at 16000 rpm in 20 minutes at +4° C. This procedure was repeated one more time. The supernatant was discarded and the pellet was reconstituted in 3 ml homogenization buffer B and homogenized for 10 seconds at low speed. Protein concentration was determined by standard Bradford method and 1.5 mg protein/tube was aliquoted to cryotubes and stored at −80° C. Binding assays were performed in white 96-well plates in a total volume of 200 μl per well. Wheat germ agglutinin SPA beads were reconstituted in assay buffer (50 mM Tris/HCl, 4.5 mM MgCl₂, 0.02% Tween 20 and 0.25% Ovalbumin pH 7.4) and mixed with membrane preparation to give a final concentration of 0.5 mg SPA beads and 10 μg total protein per well. […] The plate was sealed and incubated at +22° C. for 2 hours in a plate shaker set at 350 rpm and thereafter centrifuged at 1500 rpm for 10 minutes prior to reading of SPA bead light emission.

[3] = target: T1, human MIC-1 receptor (hGFRAL, GDNF …); assay: cell-based or functional assay; remark: listed apart in the source

Binder | Luciferase + 0.1% HSA NNDK EC50 (pM) [1] [pM] | Luciferase NNDK EC50 (pM) [1] [pM] | IC50 [2] [nM] | Emax (%) [3] [%] | pERK EC50 (nM) [3] [nM]
Macrophage Inhibitory Cytokine-1 (MIC-1), human wild type, monomer sequence SEQ ID NO:1 (ligand, covalently linked homodimer; 112 amino acid monomer = residues 197-308 of the precursor; also called wtMIC-1) ARNGDHCPLGPGRCCRLHTVRASLEDLGWADWVLSPREVQVTMCIGACPSQFRAANMHAQIKTSLHRLKPDTVPAPCCVPASYNPMVLIQKTDTGVSLQTYDDLLAKDCHCI | 36 | 59 | 0.67 | 100 | 0.3
Compound 11 (ligand, Cys-29 (residue 4 of SEQ ID NO: 290): S{Beta}-[2-[2-[[2-[2-[2-[[2-[2-[2-[[(4S)-4-carboxy-4-(17-carboxyheptadecanoylamino)butanoyl]amino]ethoxy]ethoxy]acetyl]amino]ethoxy]ethoxy]acetyl]amino]ethylamino]-2-oxoethyl]Cys (protractor of Example 10.4), homodimer, two protractors per dimer) SEPCTSGSETPGTSESATPESGPGTSTEPSEGARGDHCPLGPGRCCRLHTVRASLEDLGWADWVLSPREVQVTMCIGACPSQFRAANLHAQIKTSLHRLKPDTVPAPCCVPASYNPLVLIQKTDTGVSLQTYDDLLAKDCHCI | 62 | 55 | 29 | – | –
Compound 15 (ligand, alpha-amino group of the N-terminal Ser-32 (residue 1 of SEQ ID NO: 312): N-[4-[[[2-[2-[2-[[2-[2-[2-[[(4S)-4-carboxy-4-(17-carboxyheptadecanoylamino)butanoyl]amino]ethoxy]ethoxy]acetyl]amino]ethoxy]ethoxy]acetyl]amino]methyl]phenyl]methyl (protractor of Example 10.1), also called monoalkylated) chain 1: SEPATSGSETPGTSESATPESGPGTSTEPSEGARGDHCPLGPGRCCRLHTVRASLEDLGWADWVLSPREVQVTMCIGACPSQFRAANLHAQIKTSLHRLRPDTVPAPCCVPASYNPLVLIQRTDTGVSLQTYDDLLARDCHCI chain 2: SEPATSGSETPGTSESATPESGPGTSTEPSEGARGDHCPLGPGRCCRLHTVRASLEDLGWADWVLSPREVQVTMCIGACPSQFRAANLHAQIKTSLHRLRPDTVPAPCCVPASYNPLVLIQRTDTGVSLQTYDDLLARDCHCI | 39 | 61 | 39 | – | –
Compound 10 (ligand, alpha-amino group of the N-terminal Ser-32 (residue 1 of SEQ ID NO: 164): N-[4-[[[2-[2-[2-[[2-[2-[2-[[(4S)-4-carboxy-4-(17-carboxyheptadecanoylamino)butanoyl]amino]ethoxy]ethoxy]acetyl]amino]ethoxy]ethoxy]acetyl]amino]methyl]phenyl]methyl (protractor of Example 10.1), homodimer with one protractor on each of the two N-terminal extensions; also called Formula A (C18)) SEPATSGSETPGTSESATPESGPGTSTEPSEGARGDHCPLGPGRCCRLHTVRASLEDLGWADWVLSPREVQVTMCIGACPSQFRAANLHAQIKTSLHRLKPDTVPAPCCVPASYNPLVLIQKTDTGVSLQTYDDLLAKDCHCI | 146 | 71 | 20 | – | –
SEPATSGSETPGTSESATPESGPGTSTEPCEG-MIC-1, des-N3, M57L, M86L (Cys mutation S(-3)C) (ligand, homodimer; no protractor) SEPATSGSETPGTSESATPESGPGTSTEPCEGARGDHCPLGPGRCCRLHTVRASLEDLGWADWVLSPREVQVTMCIGACPSQFRAANLHAQIKTSLHRLKPDTVPAPCCVPASYNPLVLIQKTDTGVSLQTYDDLLAKDCHCI | 243 | 217 | 83 | – | –
Compound 17 (ligand, Cys-29 (residue 4 of SEQ ID NO: 288): S{Beta}-[2-[2-[[2-[2-[2-[[2-[2-[2-[[(4S)-4-carboxy-4-(16-sulfohexadecanoylamino)butanoyl]amino]ethoxy]ethoxy]acetyl]amino]ethoxy]ethoxy]acetyl]amino]ethylamino]-2-oxoethyl]Cys (protractor of Example 10.6), homodimer, two protractors per dimer) SEPCTSGSETPGTSESATPESGPGTSTEPSEGARGDHCPLGPGRCCRLHTVRASLEDLGWADWVLSPREVQVTMCIGACPSQFRAANMHAQIKTSLHRLKPDTVPAPCCVPASYNPMVLIQKTDTGVSLQTYDDLLAKDCHCI | 65 | 43 | 4.7 | – | –
SEPATCGSETPGTSESATPESGPGTSTEPSEG-MIC-1, des-N3 (Cys mutation S(-27)C) (ligand, homodimer; no protractor) SEPATCGSETPGTSESATPESGPGTSTEPSEGARGDHCPLGPGRCCRLHTVRASLEDLGWADWVLSPREVQVTMCIGACPSQFRAANMHAQIKTSLHRLKPDTVPAPCCVPASYNPMVLIQKTDTGVSLQTYDDLLAKDCHCI | 45 | 80 | 10 | – | –
Compound 19 (ligand, Cys-29 (residue 4 of SEQ ID NO: 288): S{Beta}-[2-[[(1S)-1-carboxy-5-[[2-[2-[2-[[2-[2-[2-[[(4S)-4-carboxy-4-[10-(4-carboxyphenoxy)decanoylamino]butanoyl]amino]ethoxy]ethoxy]acetyl]amino]ethoxy]ethoxy]acetyl]amino]pentyl]amino]-2-oxoethyl]Cys (protractor of Example 10.8), homodimer, two protractors per dimer) SEPCTSGSETPGTSESATPESGPGTSTEPSEGARGDHCPLGPGRCCRLHTVRASLEDLGWADWVLSPREVQVTMCIGACPSQFRAANMHAQIKTSLHRLKPDTVPAPCCVPASYNPMVLIQKTDTGVSLQTYDDLLAKDCHCI | 62 | 45 | 17 | – | –
SEPATSGSETPGTSESATPESGPGTSTEPSEG-MIC-1, del-N3, M57L, M86L, K69R, K107R, K91R (ligand, homodimer; no protractor) SEPATSGSETPGTSESATPESGPGTSTEPSEGARGDHCPLGPGRCCRLHTVRASLEDLGWADWVLSPREVQVTMCIGACPSQFRAANLHAQIKTSLHRLRPDTVPAPCCVPASYNPLVLIQRTDTGVSLQTYDDLLARDCHCI | 35 | 42 | 116 | – | –
Compound 16 (ligand, alpha-amino group of the N-terminal Ser-32 (residue 1 of SEQ ID NO: 312): N-[4-[[[2-[2-[2-[[2-[2-[2-[[(4S)-4-carboxy-4-(17-carboxyheptadecanoylamino)butanoyl]amino]ethoxy]ethoxy]acetyl]amino]ethoxy]ethoxy]acetyl]amino]methyl]phenyl]methyl (protractor of Example 10.1), homodimer, two protractors per dimer; also called dialkylated) SEPATSGSETPGTSESATPESGPGTSTEPSEGARGDHCPLGPGRCCRLHTVRASLEDLGWADWVLSPREVQVTMCIGACPSQFRAANLHAQIKTSLHRLRPDTVPAPCCVPASYNPLVLIQRTDTGVSLQTYDDLLARDCHCI | 51 | 63 | 11 | – | –
SEPCTSGSETPGTSESATPESGPGTSTEPSEG-MIC-1, des-N3 (Cys mutation A(-29)C) (ligand, homodimer; no protractor) SEPCTSGSETPGTSESATPESGPGTSTEPSEGARGDHCPLGPGRCCRLHTVRASLEDLGWADWVLSPREVQVTMCIGACPSQFRAANMHAQIKTSLHRLKPDTVPAPCCVPASYNPMVLIQKTDTGVSLQTYDDLLAKDCHCI | 47 | 70 | 6.7 | – | –
SEPATSCSETPGTSESATPESGPGTSTEPSEG-MIC-1, des-N3, M57L, M86L (Cys mutation G(-26)C) (ligand, homodimer; no protractor) SEPATSCSETPGTSESATPESGPGTSTEPSEGARGDHCPLGPGRCCRLHTVRASLEDLGWADWVLSPREVQVTMCIGACPSQFRAANLHAQIKTSLHRLKPDTVPAPCCVPASYNPLVLIQKTDTGVSLQTYDDLLAKDCHCI | 26 | 35 | 36 | – | –
Compound 18 (ligand, Cys-29 (residue 4 of SEQ ID NO: 288): S{Beta}-[2-[[(5S)-5-carboxy-5-[[2-[2-[2-[[2-[2-[2-[4-[17-(1H-tetrazol-5-yl)heptadecanoylsulfamoyl]butanoylamino]ethoxy]ethoxy]acetyl]amino]ethoxy]ethoxy]acetyl]amino]pentyl]amino]-2-oxoethyl]Cys (protractor of Example 10.7), homodimer, two protractors per dimer) SEPCTSGSETPGTSESATPESGPGTSTEPSEGARGDHCPLGPGRCCRLHTVRASLEDLGWADWVLSPREVQVTMCIGACPSQFRAANMHAQIKTSLHRLKPDTVPAPCCVPASYNPMVLIQKTDTGVSLQTYDDLLAKDCHCI | 67 | 66 | 1.3 | – | –
Compound 20 (ligand, Cys-29 (residue 4 of SEQ ID NO: 288): S{Beta}-[2-[[(1S)-1-carboxy-5-[[2-[2-[2-[[2-[2-[2-[[(4S)-4-carboxy-4-[12-(4-carboxyphenoxy)dodecanoylamino]butanoyl]amino]ethoxy]ethoxy]acetyl]amino]ethoxy]ethoxy]acetyl]amino]pentyl]amino]-2-oxoethyl]Cys (protractor of Example 10.9), homodimer, two protractors per dimer) SEPCTSGSETPGTSESATPESGPGTSTEPSEGARGDHCPLGPGRCCRLHTVRASLEDLGWADWVLSPREVQVTMCIGACPSQFRAANMHAQIKTSLHRLKPDTVPAPCCVPASYNPMVLIQKTDTGVSLQTYDDLLAKDCHCI | 77 | 49 | 6.5 | – | –
SEPCTSGSETPGTSESATPESGPGTSTEPSEG-MIC-1, des-N3, M57L, M86L (Cys mutation A(-29)C) (ligand, homodimer; no protractor) SEPCTSGSETPGTSESATPESGPGTSTEPSEGARGDHCPLGPGRCCRLHTVRASLEDLGWADWVLSPREVQVTMCIGACPSQFRAANLHAQIKTSLHRLKPDTVPAPCCVPASYNPLVLIQKTDTGVSLQTYDDLLAKDCHCI | 75 | 100 | 80 | – | –
SEPATSGSETPGTSESACPESGPGTSTEPSEG-MIC-1, des-N3, M57L, M86L (Cys mutation T(-15)C) (ligand, homodimer; no protractor) SEPATSGSETPGTSESACPESGPGTSTEPSEGARGDHCPLGPGRCCRLHTVRASLEDLGWADWVLSPREVQVTMCIGACPSQFRAANLHAQIKTSLHRLKPDTVPAPCCVPASYNPLVLIQKTDTGVSLQTYDDLLAKDCHCI | 115 | 125 | 29 | – | –
Compound 21 (ligand, Cys-29 (residue 4 of SEQ ID NO: 288): S{Beta}-[2-[2-[[2-[2-[2-[[2-[2-[2-[[(4S)-4-carboxy-4-[16-(1H-tetrazol-5-yl)hexadecanoylamino]butanoyl]amino]ethoxy]ethoxy]acetyl]amino]ethoxy]ethoxy]acetyl]amino]ethylamino]-2-oxoethyl]Cys (protractor of Example 10.10), homodimer, two protractors per dimer) SEPCTSGSETPGTSESATPESGPGTSTEPSEGARGDHCPLGPGRCCRLHTVRASLEDLGWADWVLSPREVQVTMCIGACPSQFRAANMHAQIKTSLHRLKPDTVPAPCCVPASYNPMVLIQKTDTGVSLQTYDDLLAKDCHCI | 56 | 53 | 1 | – | –
SEPATSGCETPGTSESATPESGPGTSTEPSEG-MIC-1, des-N3, M57L, M86L (Cys mutation S(-25)C) (ligand, homodimer; no protractor) SEPATSGCETPGTSESATPESGPGTSTEPSEGARGDHCPLGPGRCCRLHTVRASLEDLGWADWVLSPREVQVTMCIGACPSQFRAANLHAQIKTSLHRLKPDTVPAPCCVPASYNPLVLIQKTDTGVSLQTYDDLLAKDCHCI | 34 | 57 | 43 | – | –
